Laboratory results taken from paper PMC6420652 (2019).

B1: Clover-AZIN (antizyme inhibitor with an N-terminal Clover tag) [human] / antizyme-mRuby2 (antizyme with a C-terminal mRuby2 tag) [human] (parent complex)
chain 1: MKGFIDDANYSVGLLDEGTNLGNVIDNYVYEHTLTGKNAFFVGDLGKIVKKHSQWQNVVAQIKPFYTVKCNSAPAVLEILAALGTGFACSSKNEMALVQELGVPPENIIYISPCKQVSQIKYAAKVGVNILTCDNEIELKKIARNHPNAKVLLHIATEDNIGGEEGNMKFGTTLKNCRHLLECAKELDVQIIGVKFHVSSACKESQVYVHALSDARCVFDMAGEIGFTMNMLDIGGGFTGTEFQLEEVNHVISPLLDIYFPEGSGVKIISEPGSYYVSSAFTLAVNIIAKKVVENDKFPSGVEKTGSDEPAFMYYMNDGVYGSFASKLSEDLNTIPEVHKKYKEDEPLFTSSLWGPSCDELDQIVESCLLPELNVGDWLIFDNMGADSFHEPSAFNDFQRPAIYYMMSFSDWYEMQDAGITSDSMMKNFFFVPSCIQLSQEDSFSAEA
chain 2: not shown

Variants of: B1
Assay: FRET titration; parent: 24 nM; read off a plot

| Variant | Kd [nM] |
| --- | --- |
| chain 1 C114A | ~28 |
| chain 1 L328A | ~26 |
| chain 1 D359A | ~41 |
| chain 1 N93A | ~35 |
| chain 1 F170A | ~27 |
| chain 1 E366A | ~31 |
| chain 1 K92A | ~25 |
| chain 1 S91A | ~26 |
| chain 1 L361A | ~55 |
| chain 1 D214A | ~27 |
| chain 1 F395A | ~58 |
| chain 1 N396A | ~47 |
| chain 1 K175A | ~30 |
| chain 1 S393A | ~25 |
| chain 1 S367A | ~39 |
| chain 1 S329A | ~24 |
| chain 1 Y321A | ~27 |

Other lines, results leading:

| Kd [nM] | Variant |
| --- | --- |
| ~23 | chain 1 K115A |
| ~23 | chain 1 F398A |
| ~23 | chain 1 K63A |
| ~23 | chain 1 D423A |
| ~21 | chain 1 K169A |
| ~21 | chain 1 M168A |
| ~21 | chain 1 Q116A |
| ~21 | chain 1 K69A |
| ~20 | chain 1 E138A |
| ~20 | chain 1 E136A |
| ~19 | chain 1 K141A |
| ~18 | chain 1 D134A |
| ~15 | chain 1 S118A |
| ~12 | chain 1 E391A |
| ~10 | chain 1 R144A |
| ~9.6 | chain 1 Q119A |
| ~9.3 | chain 1 L139A |

Variants of: B1
Assay: FRET titration; Clover-containing proteins 50 nM; titration of AZ-mRuby2; parent: 22.2 nM

| Kd [nM] | Variant |
| --- | --- |
| 28.6 | chain 1 S329Y |
